In patent US20220356267A1 (JIANGSU KANION PHARMACEUTICAL, published 2022):

What was measured:
[1] = target: T1, recombinant human CD73 protein (ecto-5'-nucleotidase), expressed by the applicant, C-terminal 6x His tag (human, UniProt P21589 27-547); test: cell-based or functional assay
T1 sequence: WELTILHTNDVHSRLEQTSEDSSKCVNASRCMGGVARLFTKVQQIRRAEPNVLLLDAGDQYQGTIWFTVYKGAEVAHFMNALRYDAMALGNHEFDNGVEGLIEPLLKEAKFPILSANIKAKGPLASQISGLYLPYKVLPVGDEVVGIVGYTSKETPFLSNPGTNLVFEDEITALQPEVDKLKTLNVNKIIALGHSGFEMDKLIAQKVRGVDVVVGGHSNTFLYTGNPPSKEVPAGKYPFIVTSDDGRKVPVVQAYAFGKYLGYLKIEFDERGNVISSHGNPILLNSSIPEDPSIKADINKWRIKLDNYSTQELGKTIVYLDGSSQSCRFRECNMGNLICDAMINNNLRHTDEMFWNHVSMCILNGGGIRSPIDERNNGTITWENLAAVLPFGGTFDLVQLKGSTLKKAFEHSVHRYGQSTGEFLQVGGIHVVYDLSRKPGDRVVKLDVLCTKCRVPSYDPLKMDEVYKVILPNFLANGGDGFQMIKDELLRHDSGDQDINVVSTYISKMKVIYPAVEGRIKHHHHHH

[2] = target: T2, CD73 on A549 cells (UniProt P21589 27-549, limits assumed); test: cell-based or functional assay
T2 sequence (looked up): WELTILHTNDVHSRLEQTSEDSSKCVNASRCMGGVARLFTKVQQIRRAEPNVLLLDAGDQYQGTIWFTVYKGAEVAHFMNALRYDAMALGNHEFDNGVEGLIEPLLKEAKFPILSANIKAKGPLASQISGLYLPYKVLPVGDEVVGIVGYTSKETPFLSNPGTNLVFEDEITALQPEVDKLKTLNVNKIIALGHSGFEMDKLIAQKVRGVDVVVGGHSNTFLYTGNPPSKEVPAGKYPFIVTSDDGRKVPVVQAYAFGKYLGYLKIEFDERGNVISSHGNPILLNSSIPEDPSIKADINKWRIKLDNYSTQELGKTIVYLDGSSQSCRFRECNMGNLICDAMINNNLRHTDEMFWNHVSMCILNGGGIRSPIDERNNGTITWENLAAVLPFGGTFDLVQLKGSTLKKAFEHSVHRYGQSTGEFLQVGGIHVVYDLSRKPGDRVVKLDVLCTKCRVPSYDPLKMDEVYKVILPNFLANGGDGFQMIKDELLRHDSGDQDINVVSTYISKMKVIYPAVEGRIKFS

[3] = target: T1, recombinant human CD73 protein …; test: SPR, Biacore T200, antibody captured by anti-mouse Fc IgG, human CD73 injected, 25 °C, 1:1 fit
Protocol: (§1) Anti-mouse Fc IgG was fixated on a CMS sensor chip by amine coupling in order to capture the antibody under test with the coupled anti-mouse Fc IgG. A series of human CD73 proteins having a predetermined concentration gradient were then injected, before the pH 1.7 glycine-HCl regeneration testing system that came with the reagent kit was used.
(§2) HBS-EP+ (10 mM HEPES; pH7.4, 150 mM NaCl; 3 mM EDTA; and 0.05% P20) was used as the running buffer, and the testing temperature was 25° C.
(§3) The binding constant (Ka), dissociation rate constant (Kd), and equilibrium constant (KD) were calculated with the Biacore T200 evaluation software by combining the model fitting data at a 1:1 ratio.

[4] = target: T1, recombinant human CD73 protein …; test: SPR (Biacore T200), antibody captured on anti-mouse Fc IgG chip, human CD73 injected in a concentration series, 25 C, 1:1 fit; the sheet prints E-4 where the 1st table, row 5, column 4 prints 10^-5; E-4 agrees with the printed ka 4.764E+5 and KD 8.129E-10
Protocol: as §1, §2, §3

Row | Binder | EC50 (µg/mL), Biochemical level, inhibition of the enzyme activity of CD73 [1] [µg/mL] | EC50 (µg/mL), Cell level (A549 cells), inhibition of the enzyme activity of CD73 [2] [µg/mL] | Kd [3] [nM] | koff [3] [s⁻¹] | kon [3] [M⁻¹ s⁻¹] | koff [4] [s⁻¹]
1 | anti-CD73 monoclonal antibody E1-B6 (antibody, V domains shown, Mouse hybridoma antibody of the IgG type, purified from ascitic fluid) VH: VKLQESGAELARPGASVKLSCKASGYTFTDYYINWVKQRTGQGLEWIGETYPGNGNTYYHEKFKGKATLTADRSSSTAYMQLSSLTSEDSAVYFCARGTYYGSSEYFDYWGQGTTVTVSS VL: DIVMTQSPKFMSTSVGDRVSITCKASQNVGTAVAWYQQRPGQSPKLLIYSASNRNTGVPDRFTGSGSGTDFTLTISNMQSEDLADYFCQQYSSYIFTFGSGTKLEIN | 0.232 | 0.182 | 0.813 | 0.000387 | 476000 | 0.000387
2 | anti-CD73 monoclonal antibody 06-6 (antibody, V domains shown, Mouse hybridoma antibody of the IgG type, purified from ascitic fluid) VH: QVQLQQSGPELVKPGASVRISCKASGYTFADYFMHWVRLRPGQGLEWIGWIYPGYVNIKYNEKFKGKATLTADKSSSTAYMQLSSLTSEDSAVYFCARGEDYDSAMDYWGQGTSVTVSS VL: GVVMTQTPLSLPVSLGDQASISCRSSQSLVHSNGNTYLHWYLQKPGQSPKLLIYKVSNRFSGVPDRFSGSGSGTDFTLKISRVEAEDLGVYFCSQSTHVPPWTFGGGTKLEIK | 0.206 | 0.147 | 0.753 | 0.000183 | 242000 | 
3 | anti-CD73 monoclonal antibody 9-4 (antibody, V domains shown, Mouse hybridoma antibody of the IgG type, purified from ascitic fluid) VH: not shown VL: DIQMTQSPAALSASVGETVTITCRASGNIHNYLAWYQQKQGKSPQLLVYNTQILADGVPSRFSGSGSGTQYSLKINSLQPEDFGTFYCQHFWDSPWTFGGGTKMEIK | 0.211 | 0.175 | 0.452 | 0.00015 | 332000 | 
4 | anti-CD73 monoclonal antibody F2-2 (antibody, V domains shown, Mouse hybridoma antibody of the IgG type, purified from ascitic fluid) VH: VQLQESGPGLVKPSQSLSLTCTVTGHSITSDYVWNWIRQFPGNKLEWMGYISYSGIIKYNPSLKSRISITRDTSKNQFFLQLNSVTTEDTATYYCAGDEYFWFAYWGQGTTVTVSS VL: DIQMTQSPSSMYASLGERVTITCKASQDIKSYLSWYQQKPWKSPKTLIYYATNLADGVPSRFSGSGSGQDYSLTISSLESDDTATYYCLQHGESPYTFGGGTKLEIK | 0.109 | 0.0397 | 0.0318 | 1.71e-05 | 538000 | 
5 | anti-CD73 monoclonal antibody 81-2-2 (antibody, V domains shown, Mouse hybridoma antibody of the IgG type, purified from ascitic fluid) VH: QVQLQQPGAELVKPGASVKLSCKASGYTFTSYWMHWVKQRPGQGLEWIGEINPSNGRTNYNEKFKSKATLTVDKSSSTAYMQLSSLTSEDSAVYYCARRGTSGNFFDYWGQGTTLTVSS VL: DIKMTQSPSSMYASLGERVTITCKASQDINTYLSWFQQKPGKSPKTLIYRANRLVDGVPSRFSGSGSGQDYSLTISSLEYEDMGIYYCLQFDEFPYTFGGGTKLEIK | 0.239 | 0.213 | 0.49 | 0.000104 | 212000 | 
